Results published in the supplement of paper PMC10567573.

B1: PLAGL1 (parent)
chain: TKEKKHQCDHCERCFYTRKDVRRH

Variants of: B1
Assay: protein stability index of a GFP-peptide fusion (GPS, HEK-293T) (PSI 1-6); higher = more stable
Conditions: c terminus: a fixed tail appended
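Note: lentivirally expressed fusions sorted by FACS into six bins by GFP to DsRed ratio, PSI derived from sequencing read proportions per bin multiplied by bin number.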

Row | Variant | protein stability index
1 | TKEKKHQDDHCERCFYTRKDVRRH [C8D] | 3.61
2 | TKEKKHQTDHCERCFYTRKDVRRH [C8T] | 3.24
3 | TKEKKHQFDHCERCFYTRKDVRRH [C8F] | 2.6
4 | TKEKKHQMDHCERCFYTRKDVRRH [C8M] | 2.98
5 | TKEKKHQLDHCERCFYTRKDVRRH [C8L] | 3.56
6 | TKEKKHQWDHCERCFYTRKDVRRH [C8W] | 2.75
7 | TKEKKHQHDHCERCFYTRKDVRRH [C8H] | 3.25
8 | TKEKKHQGDHCERCFYTRKDVRRH [C8G] | 3.02
9 | TKEKKHQQDHCERCFYTRKDVRRH [C8Q] | 3.53
10 | TKEKKHQNDHCERCFYTRKDVRRH [C8N] | 3.29
11 | TKEKKHQEDHCERCFYTRKDVRRH [C8E] | 3.84
12 | TKEKKHQPDHCERCFYTRKDVRRH [C8P] | 3.17
13 | TKEKKHQKDHCERCFYTRKDVRRH [C8K] | 3.43
14 | TKEKKHQRDHCERCFYTRKDVRRH [C8R] | 3.42
15 | TKEKKHQYDHCERCFYTRKDVRRH [C8Y] | 2.78
16 | TKEKKHQVDHCERCFYTRKDVRRH [C8V] | 3.12
17 | TKEKKHQIDHCERCFYTRKDVRRH [C8I] | 3.1
18 | TKEKKHQSDHCERCFYTRKDVRRH [C8S] | 3.48
19 | TKEKKHQADHCERCFYTRKDVRRH [C8A] | 3.53
20 | TKEKVHQCDHCERCFYTRKDVRRH [K5V] | 3.63
21 | TKEKGHQCDHCERCFYTRKDVRRH [K5G] | 3.04
22 | TKEKNHQCDHCERCFYTRKDVRRH [K5N] | 3.03
23 | TKEKLHQCDHCERCFYTRKDVRRH [K5L] | 3.67
24 | TKEKTHQCDHCERCFYTRKDVRRH [K5T] | 3.22

Row | Variant | protein stability index
25 | TKEKDHQCDHCERCFYTRKDVRRH [K5D] | 3.53
26 | TKEKRHQCDHCERCFYTRKDVRRH [K5R] | 3.75
27 | TKEKEHQCDHCERCFYTRKDVRRH [K5E] | 3.67
28 | TKEKHHQCDHCERCFYTRKDVRRH [K5H] | 3.82
29 | TKEKWHQCDHCERCFYTRKDVRRH [K5W] | 3.06
30 | TKEKSHQCDHCERCFYTRKDVRRH [K5S] | 3.46
31 | TKEKFHQCDHCERCFYTRKDVRRH [K5F] | 3.22
32 | TKEKCHQCDHCERCFYTRKDVRRH [K5C] | 2.59
33 | TKEKPHQCDHCERCFYTRKDVRRH [K5P] | 3.67
34 | TKEKIHQCDHCERCFYTRKDVRRH [K5I] | 3.13
35 | TKEKAHQCDHCERCFYTRKDVRRH [K5A] | 3.78
36 | TKEKYHQCDHCERCFYTRKDVRRH [K5Y] | 3.19
37 | TKEKMHQCDHCERCFYTRKDVRRH [K5M] | 3.81
38 | TKEKQHQCDHCERCFYTRKDVRRH [K5Q] | 3.67
39 | TEEKKHQCDHCERCFYTRKDVRRH [K2E] | 3.65
40 | TQEKKHQCDHCERCFYTRKDVRRH [K2Q] | 3.67
41 | TVEKKHQCDHCERCFYTRKDVRRH [K2V] | 3.3
42 | TFEKKHQCDHCERCFYTRKDVRRH [K2F] | 3.02
43 | TMEKKHQCDHCERCFYTRKDVRRH [K2M] | 3.71
44 | TCEKKHQCDHCERCFYTRKDVRRH [K2C] | 3.25
45 | THEKKHQCDHCERCFYTRKDVRRH [K2H] | 3.55
46 | TREKKHQCDHCERCFYTRKDVRRH [K2R] | 3.77
47 | TGEKKHQCDHCERCFYTRKDVRRH [K2G] | 3.15
48 | TIEKKHQCDHCERCFYTRKDVRRH [K2I] | 3.08

Row | Variant | protein stability index
49 | TSEKKHQCDHCERCFYTRKDVRRH [K2S] | 3.39
50 | TDEKKHQCDHCERCFYTRKDVRRH [K2D] | 4.04
51 | TYEKKHQCDHCERCFYTRKDVRRH [K2Y] | 3.21
52 | TPEKKHQCDHCERCFYTRKDVRRH [K2P] | 3.1
53 | TWEKKHQCDHCERCFYTRKDVRRH [K2W] | 3.16
54 | TAEKKHQCDHCERCFYTRKDVRRH [K2A] | 3.58
55 | TNEKKHQCDHCERCFYTRKDVRRH [K2N] | 3.21
56 | TTEKKHQCDHCERCFYTRKDVRRH [K2T] | 3.67
57 | TLEKKHQCDHCERCFYTRKDVRRH [K2L] | 2.75
58 | TKEKKHQCRHCERCFYTRKDVRRH [D9R] | 2.92
59 | TKEKKHQCTHCERCFYTRKDVRRH [D9T] | 2.92
60 | TKEKKHQCQHCERCFYTRKDVRRH [D9Q] | 3
61 | TKEKKHQCMHCERCFYTRKDVRRH [D9M] | 3.5
62 | TKEKKHQCEHCERCFYTRKDVRRH [D9E] | 3.32
63 | TKEKKHQCVHCERCFYTRKDVRRH [D9V] | 2.47
64 | TKEKKHQCWHCERCFYTRKDVRRH [D9W] | 2.84
65 | TKEKKHQCCHCERCFYTRKDVRRH [D9C] | 3.14
66 | TKEKKHQCKHCERCFYTRKDVRRH [D9K] | 3.24
67 | TKEKKHQCHHCERCFYTRKDVRRH [D9H] | 3.02
68 | TKEKKHQCAHCERCFYTRKDVRRH [D9A] | 2.67
69 | TKEKKHQCSHCERCFYTRKDVRRH [D9S] | 3.14
70 | TKEKKHQCLHCERCFYTRKDVRRH [D9L] | 2.98
71 | TKEKKHQCIHCERCFYTRKDVRRH [D9I] | 2.53
72 | TKEKKHQCPHCERCFYTRKDVRRH [D9P] | 3.11

Row | Variant | protein stability index
73 | TKEKKHQCNHCERCFYTRKDVRRH [D9N] | 4.02
74 | TKEKKHQCFHCERCFYTRKDVRRH [D9F] | 2.31
75 | TKEKKHQCGHCERCFYTRKDVRRH [D9G] | 3.66
76 | TKEKKHQCYHCERCFYTRKDVRRH [D9Y] | 2.46
77 | TKEKKHQCDACERCFYTRKDVRRH [H10A] | 3.33
78 | TKEKKHQCDRCERCFYTRKDVRRH [H10R] | 3.41
79 | TKEKKHQCDKCERCFYTRKDVRRH [H10K] | 3.91
80 | TKEKKHQCDPCERCFYTRKDVRRH [H10P] | 3.4
81 | TKEKKHQCDGCERCFYTRKDVRRH [H10G] | 4.13
82 | TKEKKHQCDECERCFYTRKDVRRH [H10E] | 3.37
83 | TKEKKHQCDNCERCFYTRKDVRRH [H10N] | 3.6
84 | TKEKKHQCDFCERCFYTRKDVRRH [H10F] | 2.36
85 | TKEKKHQCDDCERCFYTRKDVRRH [H10D] | 3.79
86 | TKEKKHQCDCCERCFYTRKDVRRH [H10C] | 3.33
87 | TKEKKHQCDLCERCFYTRKDVRRH [H10L] | 2.55
88 | TKEKKHQCDQCERCFYTRKDVRRH [H10Q] | 3.47
89 | TKEKKHQCDVCERCFYTRKDVRRH [H10V] | 3.37
90 | TKEKKHQCDMCERCFYTRKDVRRH [H10M] | 3.33
91 | TKEKKHQCDTCERCFYTRKDVRRH [H10T] | 3.37
92 | TKEKKHQCDSCERCFYTRKDVRRH [H10S] | 3.68
93 | TKEKKHQCDICERCFYTRKDVRRH [H10I] | 2.71
94 | TKEQKHQCDHCERCFYTRKDVRRH [K4Q] | 3.4
